Source: the supplement of paper PMC9170038

Test system: MS2 coat protein
Assay: apparent KD of MS2 coat protein; designed switch direction (-1 OFF switch, 1 ON switch): 1; higher = weaker reporter binding
Outline: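 Designed RNA switches sharing common flanks were transcribed on Illumina chips by stalled E. coli RNA polymerase. They were titrated with SNAP-549-labelled MS2 coat protein, from 0.7 or 1.5 nM doubling to 3 µM, in Tris-HCl pH 7.5 buffer with KCl, MgCl2, BSA, DTT, tRNA and Tween-20. Titrations ran without input, with 200 uM small-molecule ligand, or with an oligonucleotide input. The apparent KD of each design is the median over its clusters, after curve-fitting of normalised cluster fluorescence.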

[1] = input ligand: microRNA oligo, concentration not stated

Sequence | apparent KD of MS2 coat protein (input ligand: FMN 200 uM) | apparent KD of MS2 coat protein [1] | apparent KD of MS2 coat protein (input ligand: none) | apparent KD of MS2 coat protein (Eterna round: R95, input ligand: FMN 200 uM) | apparent KD of MS2 coat protein (Eterna round: R95, input ligand: microRNA oligo, concentration not stated) | apparent KD of MS2 coat protein (Eterna round: R95, input ligand: none)
GCUCGACUGAUGGCCUACAUGAGGAUCACCCAUGUGAUUGGGCAGGAUAUCUAGAUGCAGGAUGUAGAGAAGGGCCAGUCGAGC [SameState NG3 #45] (Eterna round: R96, puzzle: Same State NG 3) | 1130 nM | 477 nM | 503 nM |  |  | 
GCUCGGCUGAUGGCCUACAUGAGGAUCACCCAUGUGACUGGGCAGGAUAUCUAGAUGCAGGAUGUAGAGAAGGGCCUGCCGAGC [SameState NG3 #42] (Eterna round: R96, puzzle: Same State NG 3) | 704 nM | 224 nM | 458 nM |  |  | 
GCUCGGCUGAUGGCCUACAUGAGGAUCACCCAUGUGUGUGGGCAGGAUAUCUAGAUUAAGGAUGUAGAGAAGGGCCUGCCGAGC [SameState NG3 #38] (Eterna round: R96, puzzle: Same State NG 3) | 2620 nM | 340 nM | 972 nM |  |  | 
GCUGCAAUAAACGCCUACAUGAGGAUCACCCAUGUAUGUAGGCAGGAUAUCGUUUGCAAAGCAAACGAGAAGGGCUGUAGUAGC [Mat - Same State NG 3 - JL Mod - D38] (Eterna round: R96, puzzle: Same State NG 3) | 52.6 nM | 59.8 nM | 101 nM |  |  | 
GCUGCAAUUAACGCCUACAUGAGGAUCACCCAUGUAUGUAGGCAGGAUAUCGUUUGCAAAGCAAACGAGAAGGGCUGUAGUAGC [Mat - Same State NG 3 - JL Mod - D37] (Eterna round: R96, puzzle: Same State NG 3) | 65.4 nM | 83.4 nM | 113 nM |  |  | 
GCUGCAAUUAACGCCUACAUGAGGAUCACCCAUGUAUGUAGGCAGGAUAUCGUUUGCUUUGCAAACGAGAAGGGCCGUAGUAGC [JL SSNG3 1.12] (Eterna round: R96, puzzle: Same State NG 3) | 22.8 nM | 37.6 nM | 63.1 nM |  |  | 
GGAAAACAUGAGGAUCACCCAUGUAAUAAUAUGGGAGGAUAUCAGAUUUAAUUUAAUUUAUGAGAAGGCCUAAAGG [Mat - Same State 1 - Mod of Eli - D64] (puzzle: Same State 1) |  |  |  | 85 nM | 43.2 nM | 30.6 nM
GGAAACUUGAGAGGAUAUGUAGAGGAUCACCCUACAGAAGGCUCAUUUGAGAGGAUAUGUAGAGGAUCACCCUACAGAAGGCUC [pwkr ssNG DX.13] (Eterna round: R96, puzzle: Same State NG 1) | 29.6 nM | 26 nM | 72.4 nM |  |  | 
GGAAAGAGGUAAGGAUAUGCAUGGCUGGGACAUGAGGAUCACCCAUGUUGGAGAAGAAAUCUAGGGUAGAAGGUACAAGGAAGG [AK SSNG2-V2-10] (Eterna round: R96, puzzle: Same State NG 2) | 240 nM | 220 nM | 203 nM |  |  | 
GGAAGGAGGUCAGGAUAUGAACGGAAGGUACAUGAGGAUCACCCAUGUUACGGAGGAAGGAAACGUUAGAAGGGACAAGGAAGG [AK SSNG2-V2-3] (Eterna round: R96, puzzle: Same State NG 2) | 14.8 nM | 12.8 nM | 18.1 nM |  |  | 
GGAAUAUGAUGUUACAUGAGGAUCACCCAUGUAGUAAUAACUAAGGAUAUCUGUUAUGAUUAAUAAGAGAAGGUAGGAUCAUAA [AK SSNG3-V2-9] (Eterna round: R96, puzzle: Same State NG 3) | 23.6 nM | 19 nM | 25.8 nM |  |  | 
GGAAUAUUUACAGGAUAUGAGUUGUAAAGUCGAUCAGAAGGGUAGAUGUCUUACACGGUUUGUUACAUGAGGAUCACCCAUGUU [SameState NG1 #18] (Eterna round: R96, puzzle: Same State NG 1) | 66.9 nM | 75.6 nM | 86.6 nM |  |  | 
GGACGUCACAUUAACAUGAGGAUCACCCAUGUCAAAAGACAUGAGGAUAUGGAUCCUAAUUGGAUCCAGAAGGCAUGGACGUCC [Fiskers NG3ss - 39] (Eterna round: R96, puzzle: Same State NG 3) |  | 373 nM |  |  |  | 
